Non-standard residues stand in square brackets, D forms with d. Residues, ends and D or L forms follow the SMILES beside them. No end group written: not given here.
Columns and labels:
[1] = Water solubility of peptide; format: physicochemical
Experimental: The peptide […] (SEQ ID NO: 58) was designed to be sensitive to hydrolysis by the enzyme plasmin, to contain more than one thiol (cysteine) for addition reaction with conjugated unsaturated groups, and to be very water soluble. The peptide was synthesized according to the methods described above. The peptide was extremely water soluble, up to at least 120 mg/ml.

[2] = cited from earlier work
[3] = system: human umbilical vein endothelial cells; assay: Endothelial cell spreading on photopolymerized PEG gels containing peptides; format: cell-based; details: 400 cells per mm^2; normal cell culture medium
Experimental: Polyethylene glycol diacrylate of mol. wt. 8000 (230 mg/ml) was allowed to dissolve in HEPES buffered saline (10 mmol HEPES, Sigma, 8 g/L NaCl, pH 7.4) for one hour. Triethanolamine (Aldrich, 15.3 μl/ml) was added, and the pH of the solution was adjusted to pH 8 with 6 N HCl. Cysteine containing peptides were dissolved in 116.5 μl of HEPES buffered saline, and added to 870 μl of the PEG solution with vortexing. After 5 minutes, 3.5 μl of N-vinyl pyrrolidone and 10 μl of a 10 mM solution of Eosin Y were added, followed by vortexing. Gels were formed by exposure to light at 75 mW/cm^2 for one minute (Cermax Xenon Lightsource, transmitting light between 470 and 520 nm; ILC Technology, Sunnyvale, Calif., USA). Gels were allowed to swell in Tris buffered saline, pH 7.4 (4.36 g Tris HCl, 0.64 g Trizma base, 8 g NaCl, 0.2 g KCl per 1 L, all from Sigma) for 36 hr.
PEG gels were prepared as described above, using the peptide […]. Most cells have receptors that recognize the sequence GRGDSPG (SEQ ID NO: 74), and cells will interact with surfaces displaying immobilized RGD containing peptides. […] Cells were seeded onto the gels at a concentration of 400 cells per mm^2, and the number of spread cells per area were counted at different times (see FIG. 6). […]

[4] = system: Human foreskin fibroblasts; assay: Fibroblast adhesion and spreading on conjugate addition gels; format: cell-based; details: 6 hours post-seeding; RGD peptide on one of every 12 acrylates
Experimental: Conjugate addition gels were made with 0.1 g/ml PEG-2500-3A and 1.1 acrylates per sulfhydryl in […]. The gels were swollen for 24 hours in Dulbecco's modified Eagle's medium (some in serum-free conditions and some in 10% fetal bovine serum) containing 1% antibiotic and antimycotic agents. Human foreskin fibroblasts (passage 7; passaged with trypsin/EDTA) were seeded onto the gels. […] The cells became increasingly clumped together. The cellular behavior was independent of serum in the medium. Control cells seeded on tissue culture treated polystyrene spread normally.
Conjugate addition gels were made with PEG-2500-3A, […], and an RGD-containing peptide ([…]) incorporated in a pendant fashion. The gels were made with 0.1 g PEG-2500-3A/ml and 1.1 acrylates per sulfhydryl in […]. The gels were swollen for more than 36 hours in Dulbecco's modified Eagle's medium (some in serum-free conditions and some in 10% fetal bovine serum) containing 1% antibiotic and antimycotic agents. When the RGD peptide was incorporated on one of every 12 acrylates of the PEG-2500-3A, human foreskin fibroblasts (passage 8; passaged by trypsin/EDTA) adhered to the gels (both those swollen in serum-free conditions and those in serum-containing medium). At 6 hours post-seeding, the cells were uniformly distributed over the gel surface, and approximately 50% of the seeded cells were spread (in both medium conditions). […]

plasmin = plasmin (Homo sapiens, UniProt P00747); assay: Plasmin stability of peptides by analytical C18 HPLC; format: biochemical; details: 37° C.; plasmin at 1/1000 the peptide concentration
Sequence of plasmin (P00747 581-810 limits assumed, species assumed): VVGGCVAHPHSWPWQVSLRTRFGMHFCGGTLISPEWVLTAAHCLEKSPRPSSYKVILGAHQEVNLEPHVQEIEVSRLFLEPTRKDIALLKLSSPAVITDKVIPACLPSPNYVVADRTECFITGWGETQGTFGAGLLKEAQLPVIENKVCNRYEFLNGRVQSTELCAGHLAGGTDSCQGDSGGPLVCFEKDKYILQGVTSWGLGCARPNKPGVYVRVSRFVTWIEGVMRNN
Sequence of plasmin (P00747 97-580 partner limits assumed, species assumed): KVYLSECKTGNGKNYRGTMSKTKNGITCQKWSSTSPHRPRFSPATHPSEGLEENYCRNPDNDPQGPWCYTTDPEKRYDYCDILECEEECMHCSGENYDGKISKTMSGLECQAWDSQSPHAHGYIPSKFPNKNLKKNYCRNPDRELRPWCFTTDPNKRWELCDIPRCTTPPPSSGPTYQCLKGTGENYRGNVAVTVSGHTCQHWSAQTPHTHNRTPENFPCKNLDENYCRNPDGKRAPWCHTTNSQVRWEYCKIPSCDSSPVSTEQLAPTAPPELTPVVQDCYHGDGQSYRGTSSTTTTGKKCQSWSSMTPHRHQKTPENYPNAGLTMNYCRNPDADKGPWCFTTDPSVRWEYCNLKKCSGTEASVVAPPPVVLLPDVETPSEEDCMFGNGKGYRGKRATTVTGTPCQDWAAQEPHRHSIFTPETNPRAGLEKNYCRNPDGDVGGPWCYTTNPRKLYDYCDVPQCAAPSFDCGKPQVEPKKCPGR
From the text: Analytical C18 HPLC (linear acetonitrile gradient over 0.1% TFA in water) was used to confirm the relative plasmin-stability of GCY-DLys-N-DArg-DCG. The following samples were run: plasmin; […]; plasmin+[…]; GCY-DLys-N-DArg-DCG; and plasmin+GCY-DLys-N-DArg-DCG.

[5] = molecular target: T1, Collagenase (Matrix metalloproteinase I) (Homo sapiens, UniProt P03956); details: cited from earlier work
T1 sequence (P03956 100-469): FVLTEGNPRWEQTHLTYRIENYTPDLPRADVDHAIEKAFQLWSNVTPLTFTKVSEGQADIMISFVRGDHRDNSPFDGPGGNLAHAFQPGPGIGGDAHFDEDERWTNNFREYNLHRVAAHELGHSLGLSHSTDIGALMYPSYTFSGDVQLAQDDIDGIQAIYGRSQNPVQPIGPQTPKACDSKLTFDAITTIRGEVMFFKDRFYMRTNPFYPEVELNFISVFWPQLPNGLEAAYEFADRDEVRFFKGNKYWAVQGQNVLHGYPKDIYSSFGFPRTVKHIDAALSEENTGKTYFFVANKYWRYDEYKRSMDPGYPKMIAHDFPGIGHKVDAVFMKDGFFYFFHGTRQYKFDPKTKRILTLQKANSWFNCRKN

[6] = Dissolution of albumin particles in PEG solutions; format: physicochemical
From the text: For the gels in which controlled release was observed, protein particles could be seen within the gels for the entire period of release. For all gels, the disappearance of protein particles from the gel was coincident with the completion of delivery of greater than 90% of the protein in the gel. Thus, the solubility of bovine serum albumin in PEG-containing solutions was likely the most important factor in realizing controlled release of the protein. When a solution containing dissolved albumin was mixed with a solution containing dissolved PEG, the albumin precipitated, dependent upon the concentrations and the molecular weight of the PEG. Similarly, when particles of bovine serum albumin were added to a PEG solution, the kinetics of dissolution of the albumin were strongly affected by the presence of PEG. The albumin solids completely dissolved in 50 mM PBS buffer, pH 7.4 in three minutes in the absence of PEG. With 10% PEG molecular weight 8000 in solution, the time to dissolution of the albumin particles increased to six minutes. […] With 20% PEG molecular weight 8000, the protein particles dissolved to form a second liquid phase within one hour. This was presumably a true coacervate with one protein-rich, polymer-poor phase, and one polymer-rich, protein-poor phase.

For N=C(N)NCCC[C@H](NC(=O)[C@H](CC(N)=O)NC(=O)[C@H](CCCCN)NC(=O)[C@H](Cc1ccc(O)cc1)NC(=O)[C@H](CS)NC(=O)CN)C(=O)N[C@@H](CC(=O)O)C(=O)N[C@@H](CS)C(=O)NCC(=O)O (H-GCYKNRDCG-OH; N-terminus and C-terminus assumed), the solubility [1] was ≥ 120 mg/mL.

In the case of NC(=O)C[C@H](N)C(=O)O [asparagine], the “pK of alpha amine” value ([2]; alpha amine of amino acid) is given as 8.8.

In the case of NCCCC[C@H](N)C(=O)O [lysine], the “pK of side chain epsilon amine” value ([2]; side chain epsilon amine) is listed as 10.80.

For GCGYGRDGSPG (Based on Homo sapiens), the “cell spreading on PEG gels containing peptide” value [3] was “has no biological activity”.

In the case of “GCGYGRGDSPG (not fully specified) [RGD-containing adhesion peptide incorporated into gels in a pendant fashion]”, the seeded cells spread [4] is reported as “approximately 50%” and the “cell spreading on PEG gels containing peptide” value [3] is reported as “Cells could only spread on gels that contained the peptide”.

With “GCY-DLys-N-DArg-DCG (GCY[dK]N[dR]DCG; cysteine pairing not given here)” the “degradation of peptide by plasmin” value (plasmin) was “unaffected by the plasmin at 24 hours”.

For GPQGIAGQ, the “kcat/Km relative to that of PQGIAG” value [5] is listed as 100% (normal).

In the case of GPQGIASQ, the “kcat/Km relative to that of PQGIAG” value [5] is listed as 130% (fast).

For GPQGIFGQ, the “kcat/Km relative to that of PQGIAG” value [5] is listed as >300% (faster).

In the case of GPQGIWGQ, the “kcat/Km relative to that of PQGIAG” value [5] is listed as >700% (very fast).

For GPQGRAGQ, the “kcat/Km relative to that of PQGIAG” value [5] is listed as <5% (very slow).

For GPQGVAGQ, the “kcat/Km relative to that of PQGIAG” value [5] is listed as 9% (slower).

For GPVGIAGQ, the “kcat/Km relative to that of PQGIAG” value [5] is listed as 30% (slow).

In the case of “albumin: bovine serum albumin (Cohn fraction V), model protein”, the “time to complete dissolution of albumin solids” value ([6]; 50 mM PBS buffer, pH 7.4, absence of PEG) is reported as “three”, the “time to dissolution of albumin particles” value ([6]; 10% PEG molecular weight 8000) is reported as “six” and the “time to dissolve into a second liquid phase” value ([6]; 20% PEG molecular weight 8000) is reported as “one”. The dissolution of protein ([6]; 30 or 40% PEG molecular weight 8000) was “did not dissolve after seven days”.
